Bmax and Kd data for two molecules are collected here from patent publication US20190151328A1 (published 2019).

The target of this assay is T1, human epidermal growth factor receptor 3 (HER3) (human, UniProt P21860 20-1342).
T1 construct: whole, on cells; also called ErbB3; HER3 protein
Kind of assay: flow cytometry on HCC1569 cells, PE-coupled anti-human secondary antibody; one-site specific binding fit (GraphPad Prism). The protocol:
A human breast cancer cell line HCC1569 (CRL-2330) from ATCC was cultured in an RPMI1640 medium (purchased from Invitrogen Corp., containing 10% […] (manufactured by Invitrogen Corp.) and 2 mM L-glutamine (manufactured by Invitrogen Corp.)). The cells were dissociated from the culture plate using ACCUTASE® SOLUTION (Millipore Corp., SCR005) or EDTA (5 mM, phosphate buffered saline (PBS, 137 mM sodium chloride, 2.7 mM potassium chloride, 1.47 mM potassium dihydrogen phosphate, and 10.5 mM disodium hydrogen phosphate)), and the number of living cells was measured by trypan blue treatment. The same numbers of cells suspended in a fluorescence-activated cell sorting (FACS) buffer (PBS containing 3% FBS and 0.004% sodium azide) were inoculated to 96-well U-bottom plates, and the cells were precipitated by centrifugation and suspended in 100 uL of an ice-cooled antibody or antibody-drug conjugate dilution or FACS buffer.
The cells of each group were reacted with a primary antibody dilution for 45 minutes on ice and then washed with a FACS buffer. […]
FIG. 3 and Table 1 show the mean fluorescence intensity of HCC1569 treated with serial dilutions of U1-59 or each antibody-drug conjugate. The equilibrium binding affinity KD and the maximum binding strength Bmax were calculated using GraphPad Prism software.
A general note: A flow cytometer gives signals particle by particle.

B1: Antibody-drug conjugate (3) (antibody, human IgG1, kappa, V domains shown)
VH: QVQLQQWGAGLLKPSETLSLTCAVYGGSFSGYYWSWIRQPPGKGLEWIGEINHSGSTNYNPSLKSRVTISVETSKNQFSLKLSSVTAADTAVYYCARDKWTWYFDLWGRGTLVTVSS
VL: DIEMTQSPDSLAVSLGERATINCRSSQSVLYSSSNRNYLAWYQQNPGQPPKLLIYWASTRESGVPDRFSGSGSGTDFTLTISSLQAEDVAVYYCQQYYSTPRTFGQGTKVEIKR
modifications: may carry one drug-linker molecule (L1 species of Common procedure F); position not given; drug-linker -(Succinimid-3-yl-N)-CH2CH2CH2CH2CH2-C(=O)-GGFG-NH-CH2CH2CH2-C(=O)-(NH-DX) (exatecan) on cysteines by thioether bond at the reduced disulfide bonds of the hinge part; positions not given; average 4.9 drug molecules per antibody (Common procedure E)
notes: also called ADC (3)
For B1, the Bmax is 29000.

B2: Antibody-drug conjugate (13) (antibody, human IgG1, kappa, V domains shown)
VH: B1 VH
VL: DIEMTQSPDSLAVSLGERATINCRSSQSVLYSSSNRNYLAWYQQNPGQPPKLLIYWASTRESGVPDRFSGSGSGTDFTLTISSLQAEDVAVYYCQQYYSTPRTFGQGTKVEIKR
modifications: may carry one drug-linker molecule (L1 species of Common procedure F); position not given; drug-linker -(Succinimid-3-yl-N)-CH2CH2CH2CH2CH2-C(=O)-GGFG-NH-CH2-O-CH2-C(=O)-(NH-DX) (exatecan) on cysteines by thioether bond at the reduced disulfide bonds of the hinge part; positions not given; average 6.2 (Common procedure E) or 7.0 (Common procedure F) drug molecules per antibody
notes: also called ADC (13)
As a reminder, the Kd is the equilibrium constant for the complex coming apart. Read a low Kd as higher affinity. B2 showed a Kd of 2.73 nM.
